Source: patent US20180258158A1 (Bristol-Myers Squibb, published 2018)
Like-named read-outs stand apart in the source and are kept apart here.

Experiments:
[1] = target: T1, mouse serum albumin (MSA), full length (mouse, UniProt P07724 25-608); assay: SPR off-rate ratio to parent ADX_7016_A01, MSA, 25 C
T1 construct: mature; Immobilized on CM5 chip (SPR) or coated on plates (ELISA); also called mouse albumin; murine serum albumin
Description: (§1) Measurements were conducted by SPR and ELISA. SPR was conducted as follows. Full length HSA or mouse albumin was immobilized on a Biacore T series CM5 chip at 15 ug/mL in 10 mM acetate buffer (pH 5.0) buffer using standard NHS/EDC coupling, to a surface density of approximately 1000-1100 RU. For off-rate measurements at 25° C., PKE Adnectins were applied as analytes at 500 nM in HBS-P+(0.01 M HEPES pH 7.4, 0.15 M NaCl, 0.005% v/v Surfactant P20) running buffer at a flow rate of 20ul/min for 120 s over the immobilized albumins, followed by 800 s for dissociation. […] Regeneration of the chip surface between cycles was accomplished with two 30 second pulses of 10 mM Glycine, pH 2.0. Kinetic traces of reference-subtracted sensorgrams were fit to a 1:1 binding model for affinity using the Biaevaluation software. Only the dissociation phase was fit for determination of off-rates.

[2] = target: T2, human serum albumin (HSA), full length (human, UniProt P02768 25-609); assay: SPR, immobilized HSA, 500 nM Adnectin, 25 C
T2 construct: mature; Immobilized on CM5 chip (SPR) or coated on plates (ELISA)
T2 sequence (P02768 25-609): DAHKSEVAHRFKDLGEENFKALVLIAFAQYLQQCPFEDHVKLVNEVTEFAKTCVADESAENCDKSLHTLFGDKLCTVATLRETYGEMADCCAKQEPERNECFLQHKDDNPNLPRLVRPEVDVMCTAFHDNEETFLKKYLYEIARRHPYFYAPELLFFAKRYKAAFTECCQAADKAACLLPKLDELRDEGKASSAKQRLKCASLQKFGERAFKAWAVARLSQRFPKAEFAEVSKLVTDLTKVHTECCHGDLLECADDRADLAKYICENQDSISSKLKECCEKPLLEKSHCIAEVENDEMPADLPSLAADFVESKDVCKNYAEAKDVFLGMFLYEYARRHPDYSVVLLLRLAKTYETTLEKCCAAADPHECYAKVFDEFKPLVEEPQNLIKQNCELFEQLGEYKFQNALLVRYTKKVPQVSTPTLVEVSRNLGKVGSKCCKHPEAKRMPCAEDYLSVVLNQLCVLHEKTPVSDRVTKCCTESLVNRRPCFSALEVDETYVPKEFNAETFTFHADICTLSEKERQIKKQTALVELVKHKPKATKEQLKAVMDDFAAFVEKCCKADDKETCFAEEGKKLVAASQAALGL
Description: as §1

[3] = target: T2, human serum albumin (HSA), full length; assay: SPR off-rate, immobilized HSA, 500 nM Adnectin, 25 C
Description: as §1

[4] = target: T1, mouse serum albumin (MSA), full length; assay: SPR, immobilized MSA, 500 nM Adnectin, 25 C
Description: as §1

[5] = target: T2, human serum albumin (HSA), full length; assay: SPR off-rate ratio to parent ADX_7016_A01, HSA, 25 C
Description: as §1

[6] = target: T1, mouse serum albumin (MSA), full length; assay: SPR off-rate, immobilized MSA, 500 nM Adnectin, 25 C
Description: as §1

[7] = target: T1, mouse serum albumin (MSA), full length; assay: SPR off-rate ratio to parent ADX_7016_A01, MSA, 25 C; remark: listed apart in the source
Description: as §1

[8] = target: T1, mouse serum albumin (MSA), full length; assay: SPR off-rate, immobilized MSA, 500 nM Adnectin, 25 C; remark: listed apart in the source
Description: as §1

[9] = target: T2, human serum albumin (HSA), full length; assay: SPR off-rate, immobilized HSA, 500 nM Adnectin, 25 C; remark: listed apart in the source
Description: as §1

[10] = target: T2, human serum albumin (HSA), full length; assay: direct binding ELISA, coated HSA, anti-His-HRP; design: unit not given here
Description: (§2) Direct binding ELISA assays were conducted as follows. Full length human and murine serum albumin at 10ug/ml in PBS were coated on Nunc Maxisorp plates overnight at 4° C. Plates were blocked in casein/PBS buffer. PKE Adnectins were allowed to bind over a 4-point concentration range of 0.032-4 uM for HSA and 0.008-1 uM for MSA. Bound Adnectin was detected by anti-His antibody conjugated with HRP (horseradish peroxidase) diluted 1:1500 in casein/PBS. Plates were developed with TMB substrate and absorbance read at 450 nm. Adnectins were binned as high, medium and low affinity binders based on the observed Ymax of the concentration response curves.

[11] = target: T2, human serum albumin (HSA), full length; assay: SPR off-rate ratio to parent ADX_7016_A01, HSA, 25 C; remark: listed apart in the source
Description: as §1

[12] = target: T1, mouse serum albumin (MSA), full length; assay: direct binding ELISA, coated MSA, anti-His-HRP; design: unit not given here
Description: as §2

[13] = target: T1, mouse serum albumin (MSA), full length; assay: direct binding ELISA, coated MSA, anti-His-HRP
Description: as §2

Row | Binder | MSA kd/Parent kd [1] | HSA Binding (RU) [2] [RU] | koff [3] [s⁻¹] | MSA Binding (RU) [4] [RU] | HSA kd/Parent kd [5] | koff [6] [s⁻¹] | MSA kd/Parent kd [7] | koff [8] [s⁻¹] | koff [9] [s⁻¹] | HSA DB ELISA (OD450) Ymax obs [10] | HSA DB ELISA (OD450) Ymin obs [10] | HSA kd/Parent kd [11] | MSA DB ELISA (OD450) Ymax obs [12] | MSA DB ELISA (OD450) Ymin obs [12] | MSA DB ELISA YMIN OBS (OD450) [13] [OD450]
1 | ADX_6727_A07 (Y44S/K85T) (designed binder, Full His6-tagged entry) MGVSDVPRDLEVVAATPTSLLISWDAPAVTVRYYRITYGREVQKYSDLGPLYISQEFTVPGSKSTATISGLKPGVDYTITVYAVTGSGESPASSTPISINYRTEIDKPSQHHHHHH | 5.2 | 28 | 0.00129 | 56 | 4.8 | 0.00222 | – | – | – | – | – | – | – | – | –
2 | ADX_6727_B04 (Y35S/K85S) (designed binder, Full His6-tagged entry) MGVSDVPRDLEVVAATPTSLLISWDAPAVTVRYYRITYGREVQKSSDLGPLYIYQEFTVPGSKSTATISGLKPGVDYTITVYAVTGSGESPASSSPISINYRTEIDKPSQHHHHHH | 3.3 | 23 | 0.0011 | 62 | 4.1 | 0.00142 | 3.3 | 0.00142 | 0.0011 | 99 | 62 | 4.1 | 95 | 74 | –
3 | ADX_6727_F06 (L41A/K85T) (designed binder, Full His6-tagged entry) MGVSDVPRDLEVVAATPTSLLISWDAPAVTVRYYRITYGREVQKYSDLGPAYIYQEFTVPGSKSTATISGLKPGVDYTITVYAVTGSGESPASSTPISINYRTEIDKPSQHHHHHH | – | – | – | – | – | – | 12.8 | 0.0055 | 0.00298 | 90 | 19 | 11 | 91 | 4 | –
4 | ADX_6727_F03 (I43Y as printed in Table 4; I43A in Table 7) (designed binder, Full His6-tagged entry) MGVSDVPRDLEVVAATPTSLLISWDAPAVTVRYYRITYGREVQKYSDLGPLYAYQEFTVPGSKSTATISGLKPGVDYTITVYAVTGSGESPASSKPISINYRTEIDKPSQHHHHHH | – | – | – | – | – | – | 8.9 | 0.0038 | 0.00468 | 89 | 9 | 17 | 67 | 2 | –
5 | ADX_6727_F10 (Y35A/K85T) (designed binder, Full His6-tagged entry) MGVSDVPRDLEVVAATPTSLLISWDAPAVTVRYYRITYGREVQKASDLGPLYIYQEFTVPGSKSTATISGLKPGVDYTITVYAVTGSGESPASSTPISINYRTEIDKPSQHHHHHH | 3.6 | 22 | 0.00109 | 55 | 4 | 0.00156 | – | – | – | – | – | – | – | – | –
6 | ADX_6727_F07 (Y44S/K85A) (designed binder, Full His6-tagged entry) MGVSDVPRDLEVVAATPTSLLISWDAPAVTVRYYRITYGREVQKYSDLGPLYISQEFTVPGSKSTATISGLKPGVDYTITVYAVTGSGESPASSAPISINYRTEIDKPSQHHHHHH | 6.5 | 35 | 0.00176 | 62 | 6.5 | 0.00277 | – | – | – | – | – | – | – | – | –
7 | ADX_6727_F04 (Y44A/K85A) (designed binder, Full His6-tagged entry) MGVSDVPRDLEVVAATPTSLLISWDAPAVTVRYYRITYGREVQKYSDLGPLYIAQEFTVPGSKSTATISGLKPGVDYTITVYAVTGSGESPASSAPISINYRTEIDKPSQHHHHHH | – | – | – | – | – | – | 16.2 | 0.00694 | 0.00624 | 56 | 6 | 23 | 77 | 2 | –

Results, then the binder that gave them:

Row | MSA kd/Parent kd [1] | HSA Binding (RU) [2] [RU] | koff [3] [s⁻¹] | MSA Binding (RU) [4] [RU] | HSA kd/Parent kd [5] | koff [6] [s⁻¹] | MSA kd/Parent kd [7] | koff [8] [s⁻¹] | koff [9] [s⁻¹] | HSA DB ELISA (OD450) Ymax obs [10] | HSA DB ELISA (OD450) Ymin obs [10] | HSA kd/Parent kd [11] | MSA DB ELISA (OD450) Ymax obs [12] | MSA DB ELISA (OD450) Ymin obs [12] | MSA DB ELISA YMIN OBS (OD450) [13] [OD450] | Binder
8 | 6 | 28 | 0.00177 | 56 | 6.6 | 0.00259 | – | – | – | – | – | – | – | – | – | ADX_6727_G04 (Y44S/K85S) (designed binder, Full His6-tagged entry) MGVSDVPRDLEVVAATPTSLLISWDAPAVTVRYYRITYGREVQKYSDLGPLYISQEFTVPGSKSTATISGLKPGVDYTITVYAVTGSGESPASSSPISINYRTEIDKPSQHHHHHH
9 | – | – | 0.01 | – | – | 0.0284 | – | – | – | – | – | – | – | – | 1 | ADX_6727_H08 (L38T/K85T) (designed binder, Full His6-tagged entry; Printed with the same substitutions as ADX_6727_B09) MGVSDVPRDLEVVAATPTSLLISWDAPAVTVRYYRITYGREVQKYSDTGPLYIYQEFTVPGSKSTATISGLKPGVDYTITVYAVTGSGESPASSTPISINYRTEIDKPSQHHHHHH
10 | – | – | – | – | – | – | 22.8 | 0.00977 | 0.0139 | 37 | 2 | 52 | 39 | 1 | – | ADX_6727_H02 (I43S) (designed binder, Full His6-tagged entry) MGVSDVPRDLEVVAATPTSLLISWDAPAVTVRYYRITYGREVQKYSDLGPLYSYQEFTVPGSKSTATISGLKPGVDYTITVYAVTGSGESPASSKPISINYRTEIDKPSQHHHHHH
11 | – | – | – | – | – | – | 27 | 0.0116 | 0.0143 | 38 | 2 | 53 | 32 | 1 | – | ADX_6727_G05 (I43S/K85A) (designed binder, Full His6-tagged entry) MGVSDVPRDLEVVAATPTSLLISWDAPAVTVRYYRITYGREVQKYSDLGPLYSYQEFTVPGSKSTATISGLKPGVDYTITVYAVTGSGESPASSAPISINYRTEIDKPSQHHHHHH
12 | 3.2 | 27 | 0.000892 | 63 | 3.3 | 0.00138 | 3.2 | 0.00138 | 0.000892 | 96 | 54 | 3.3 | 100 | 54 | – | ADX_6727_G10 (Y35S/K85A) (designed binder, Full His6-tagged entry) MGVSDVPRDLEVVAATPTSLLISWDAPAVTVRYYRITYGREVQKSSDLGPLYIYQEFTVPGSKSTATISGLKPGVDYTITVYAVTGSGESPASSAPISINYRTEIDKPSQHHHHHH
13 | 3.3 | 26 | 0.00105 | 66 | 3.9 | 0.00143 | – | – | – | – | – | – | – | – | – | ADX_6727_G06 (Y35A/K85S) (designed binder, Full His6-tagged entry) MGVSDVPRDLEVVAATPTSLLISWDAPAVTVRYYRITYGREVQKASDLGPLYIYQEFTVPGSKSTATISGLKPGVDYTITVYAVTGSGESPASSSPISINYRTEIDKPSQHHHHHH
14 | – | – | – | – | – | – | 14.9 | 0.00639 | 0.0037 | 79 | 12 | 14 | 87 | 3 | – | ADX_6727_G01 (L41A) (designed binder, Full His6-tagged entry) MGVSDVPRDLEVVAATPTSLLISWDAPAVTVRYYRITYGREVQKYSDLGPAYIYQEFTVPGSKSTATISGLKPGVDYTITVYAVTGSGESPASSKPISINYRTEIDKPSQHHHHHH
